Results on one molecule are retold here after patent US20180094059A1 (UNIVERSITAT STUTTGART, published 2018).

One assay has as its target T1, EGFR-Fc (UniProt P00533 25-645).
T1 construct: also called purified EGFR-Fc; not shown: Fc part
Put plainly: ELISA, EGFR-Fc. Background: In an ELISA, binding on a coated surface is turned into a signal by an enzyme label.

For assay [1], the target named is T2, EGFR on EGFR-positive tumor cell lines (UniProt P00533 25-1210, limits assumed).
T2 construct: whole, on cells; The cell line is named under assay or readout; also called EGFR+ cell lines
Put plainly: flow cytometry, HCT116 cells. In general terms: Flow cytometry measures light scatter and fluorescence of single cells or particles in a stream.

In assay [2] the target is T2, EGFR on EGFR-positive tumor cell lines. Put plainly: flow cytometry, HCT116 cells. The source holds these as a separate data set.
Assay [3] shares this target. Put plainly: flow cytometry, Colo205 cells.
For assay [4] the target is unchanged. Put plainly: flow cytometry, Colo205 cells. This is another data set of the same source.

B1: anti-EGFR IgG (antibody, V domains shown)
VH: EVQLVESGGGLVQPGGSLRLSCAASGFSLTNYGVHWVRQAPGKGLEWLGVIWSGGNTDYNTPFTSRFTISRDNSKNTLYLQMNSLRAEDTAVYYCARALTYYDYEFAYWGQGTTVTVSS
VL: DIQLTQSPSFLSASVGDRVTITCRASQSIGTNIHWYQQKPGKAPKLLIKYASESISGVPSRFSGSGSGTEFTLTISSLQPEDFATYYCQQNNNWPTTFGAGTKLEIKR
notes: EGFR-specific human IgG1 with mutated Fc domain (ADCC/CDC), kappa light chain, N-terminal FLAG tag on the heavy chain; derived from cetuximab by humanization; also called hu225 (anti-EGFR) IgG; anti-EGFR human IgG1 scaffold antibody
Broadly, the EC50 is the concentration needed to bring the measured effect to its halfway point. Read a high EC50 as a need for much substance. Regarding B1, the half-maximal effective concentration (EC50) in the assay with EGFR-Fc worked out at 0.156 nM; in assay [1] it was 0.008 nM; in assay [2] it was 0.07 nM; in assay [3] it was 0.028 nM; in assay [4], 0.06 nM.
